Assay results: doi:10.1101/2025.06.13.659557
Like-named read-outs stand apart in the source and are kept apart here.

How the values were obtained:
mCherry-RalB = mCherry-RalB (UniProt P11234); assay: co-IP
GFP-RalA [1] = molecular target: GFP-RalA (UniProt P11233); assay: pull-down
GFP-RalB [2] = molecular target: GFP-RalB (UniProt P11234); assay: pull-down
GFP-RalA [3] = molecular target: GFP-RalA (UniProt P11233); assay: pull-down; remark: listed apart in the source
GFP-RalB [4] = molecular target: GFP-RalB (UniProt P11234); assay: pull-down; remark: listed apart in the source
[5] = molecular target: angiomotin (GFP-fused bait) (UniProt Q4VCS5); assay: pull-down
UniProt Q4VCS5, sequence (Q4VCS5 whole entry, the tested form may be a part): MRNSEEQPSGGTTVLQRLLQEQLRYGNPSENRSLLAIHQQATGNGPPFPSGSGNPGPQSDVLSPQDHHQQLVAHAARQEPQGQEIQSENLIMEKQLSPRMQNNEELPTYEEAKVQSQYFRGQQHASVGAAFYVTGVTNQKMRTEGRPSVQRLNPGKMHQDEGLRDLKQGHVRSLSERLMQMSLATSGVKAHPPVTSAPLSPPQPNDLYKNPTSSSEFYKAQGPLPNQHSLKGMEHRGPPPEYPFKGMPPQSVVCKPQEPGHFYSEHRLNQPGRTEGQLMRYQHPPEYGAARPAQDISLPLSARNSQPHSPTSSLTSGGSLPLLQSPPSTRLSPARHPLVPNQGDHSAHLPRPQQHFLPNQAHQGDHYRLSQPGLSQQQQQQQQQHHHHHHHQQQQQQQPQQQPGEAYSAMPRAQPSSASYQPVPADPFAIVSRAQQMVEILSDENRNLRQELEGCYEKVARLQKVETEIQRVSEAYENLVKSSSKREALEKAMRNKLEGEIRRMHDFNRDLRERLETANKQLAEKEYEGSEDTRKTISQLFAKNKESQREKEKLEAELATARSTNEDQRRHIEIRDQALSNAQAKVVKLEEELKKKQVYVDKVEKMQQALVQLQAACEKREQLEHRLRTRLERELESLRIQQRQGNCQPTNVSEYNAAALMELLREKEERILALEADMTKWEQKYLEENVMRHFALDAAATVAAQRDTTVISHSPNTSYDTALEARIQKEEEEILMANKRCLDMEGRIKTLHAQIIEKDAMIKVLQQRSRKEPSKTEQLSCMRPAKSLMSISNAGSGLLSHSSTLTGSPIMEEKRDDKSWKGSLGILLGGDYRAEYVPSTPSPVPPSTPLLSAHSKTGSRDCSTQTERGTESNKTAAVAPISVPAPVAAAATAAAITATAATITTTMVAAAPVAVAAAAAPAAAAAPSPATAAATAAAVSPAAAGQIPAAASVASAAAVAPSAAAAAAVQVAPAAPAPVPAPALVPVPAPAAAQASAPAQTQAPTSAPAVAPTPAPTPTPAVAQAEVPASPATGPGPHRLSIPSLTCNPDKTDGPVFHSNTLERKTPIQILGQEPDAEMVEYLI

UniProt P11233, sequence (P11233 whole entry): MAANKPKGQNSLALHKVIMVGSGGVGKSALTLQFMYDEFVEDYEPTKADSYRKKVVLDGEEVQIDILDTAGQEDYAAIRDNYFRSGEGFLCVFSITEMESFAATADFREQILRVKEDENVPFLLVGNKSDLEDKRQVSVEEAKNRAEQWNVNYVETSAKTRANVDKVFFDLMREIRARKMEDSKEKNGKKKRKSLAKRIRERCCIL

Substance	percent reduction of RalB binding to Exo84 (mCherry-RalB) [%]	percent reduction of RalB binding to Sec5 (mCherry-RalB) [%]	fold binding over the GFP control (GFP-RalA [1]) [fold]	fold binding over the GFP control (GFP-RalB [2]) [fold]	fold binding over the GFP control (GFP-RalA [3]) [fold]	fold binding over the GFP control (GFP-RalB [4]) [fold]	fold binding over the GFP control [5] [fold]
Merlin-GFP (wild type) (from UniProt P35240 1-595) (natural protein)	50	50					
Merlin-NanoLuc (from UniProt P35240 1-595) (natural protein)			> 50	> 50	7	7	> 65
